Measurements from article PMC4586518 (2015).

Target: Melanocortin-1 receptor (MC-1R) (Mus musculus, UniProt Q01727)
Experiment: radioligand competition binding with [125I]-α-MSH on B16 cells

Melanocortin-1 receptor (MC-1R), sequence (Q01727 whole entry): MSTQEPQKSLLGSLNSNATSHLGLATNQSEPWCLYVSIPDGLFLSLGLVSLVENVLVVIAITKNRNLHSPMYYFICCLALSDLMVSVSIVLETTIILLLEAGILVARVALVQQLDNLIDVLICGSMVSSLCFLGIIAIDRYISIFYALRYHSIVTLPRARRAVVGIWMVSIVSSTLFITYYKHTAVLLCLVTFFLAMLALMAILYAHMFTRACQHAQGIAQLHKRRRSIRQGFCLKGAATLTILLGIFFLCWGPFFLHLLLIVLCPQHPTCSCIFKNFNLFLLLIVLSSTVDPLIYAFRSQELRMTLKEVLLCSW

## SYSMEHFR [ACTH(1-8)]
  Kd: 88 nM
